Measured values taken from US20240293316A1, “ENZYME-RESPONSIVE POLYMER PEPTIDE AMPHIPHILES FOR TARGETED DRUG DELIVERY TO TREAT LOCAL AND SYSTEMIC INFLAMMATION” (Ramot at Tel-Aviv University Ltd., priority 2021, published 2024).
Square brackets hold non-standard residues; d marks the D form. Ends that are not written are not given here. * marks the point of attachment. NorAHA = (N-hexanoic acid)-5-norbornene-exo-2,3-dicarboximide, O=C1[C@@H]2[C@H](C(=O)N1CCCCCC(=O)*)[C@H]1C=C[C@@H]2C1

Experiments:
[1] = tested on: diabetic rats following collagen membrane implantation; experiment: Diabetic rats with implanted collagen membrane, fluorescence imaging of DEX-containing nanoparticles; type: in vivo, Female Sprague Dawley rats; conditions: for order of in-vivo fluorescence intensity: 7- and 14-days post injection
Procedure: (§1) “Diabetic induction” model [Zoabi et al. 2020, supra]: Type 1-like diabetes was induced through a single intraperitoneal injection of streptozotocin, and the induction of hyperglycemia is confirmed by a blood glucose level that is higher than 270 mg/dL at 7 days post injection;
(§2) “Collagen membrane implantation” under scalp of diabetic rats, wherein a para-sagital excisional wound, 10 mm in length, was created in the center of the skin of the calvaria, the periosteum was separated from the skull bone, and a collagen membrane was implanted beneath [Eliezer M, Nemcovsky C, Romanos G, Kozlovsky A, Tal H, Kolerman R, Weinreb M, Moses O. Opposing effects of diabetes and tetracycline on the degradation of collagen membranes in rats. J Periodontol. 2013 April; 84(4):529-34; Tal H, Weinreb M, Shely A, Nemcovsky C E, Moses O. Tetracycline impregnation affects degradation of porcine collagen matrix in healthy and diabetic rats. Clin Oral Investig. 2016 July; 20(6):1237-42; Moses O, Eliezer M, Nemcovsky C, Tal H, Weinreb M. Accelerated degradation of collagen membranes in diabetic rats is associated with increased infiltration of macrophages and blood vessels. Clin Oral Investig. 2016 September; 20(7):1589-96; Eliezer M, Sculean A, Miron R J, Nemcovsky C, Weinberg E, Weinreb M, Zoabi H, Bosshardt D D, Fujioka-Kobayashi M, Moses O. Hyaluronic acid slows down collagen membrane degradation in uncontrolled diabetic rats. J Periodontal Res. 2019 December; 54(6):644-652; and Zoabi H, Nemcovsky C E, Bender O, Moses O, Weinreb M. Accelerated degradation of collagen membranes in type 1 diabetic rats is associated with increased expression and production of several inflammatory molecules. J Periodontol. 2020 October; 91(10):1348-13561.
Type 1-like diabetes was induced as described in the Materials and Methods section, and the induction of hyperglycemia was confirmed by a blood glucose level higher than 270 mg/dL 7 days post injection (see, FIGS. 13A and 13B).
(§3) At day 8, the rats were randomly divided into five groups to receive one single dosage of: i) NPL, ii) NPD, iii) NPR, iv) free DEX, or v) no injection, through a subcutaneous injection posterior to the ear (n=12 for each treatment group and n=3 for the no injection control group). For each treated group, 260 μg of DEX (either free-form or conjugated to the polymer) was used to provide a […] dosage similar to the literature value. Thus, the PPA NPs injection contained 250 μM polymer with 50% (125 μM) Cy 5.5 labeling, for each 200 μL injection.

thermolysin = thermolysin (Bacillus thermoproteolyticus, UniProt P00800); conditions: 1 μM thermolysin:100 μM polymer, 24 hours incubation at 37° C.
Sequence of thermolysin (P00800 233-548, species assumed): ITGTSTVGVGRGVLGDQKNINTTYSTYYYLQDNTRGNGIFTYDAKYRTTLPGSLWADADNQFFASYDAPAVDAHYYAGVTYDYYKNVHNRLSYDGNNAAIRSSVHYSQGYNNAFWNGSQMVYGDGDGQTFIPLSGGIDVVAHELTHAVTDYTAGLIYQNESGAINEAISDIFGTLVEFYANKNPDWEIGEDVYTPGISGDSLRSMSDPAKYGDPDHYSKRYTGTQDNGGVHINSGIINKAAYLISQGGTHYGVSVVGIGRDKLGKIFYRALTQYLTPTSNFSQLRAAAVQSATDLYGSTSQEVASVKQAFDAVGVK
Procedure: Transmission electron microscopy (TEM): Nanoparticles were characterized using a Hitachi HD-2300 STEM. Grids were prepared using a 1% uranyl acetate solution.
The nanoparticle cleavage experiment was performed similarly as described in Materials and Methods section, using a ratio of 1 μM thermolysin:100 μM polymer for 24 hours incubation at 37° C.

[2] = Properties of the designed random peptide (water solubility, net charge); type: physicochemical
Procedure: A new random peptide sequence was designed by replacing the MMP recognizable amino acid sequence PLGLAG (SEQ ID NO: 16) into GSGSGS (SEQ ID NO: 20).
Following the preparation of peptide functionalized norbornene monomers, an MMP-9 cleavage assay was performed setup, as described in the Materials and Methods section hereinabove.

[3] = tested on: diabetic rats following collagen membrane implantation; experiment: Diabetic rats with implanted collagen membrane, histology of residual collagen membrane (HRP-Avidin); type: in vivo, Female Sprague Dawley rats
Procedure: as §1, §2, §3
Two weeks following injection, the rats were sacrificed with carbon dioxide overdose, and the skull together with the over lining periosteum and the membrane were harvested.
The harvested skull together with the over lining periosteum and the membrane were subjected to the following processing: tissues from 10 rats per group were fixed with paraformaldehyde, and processed for decalcified tissue histology, embedded in paraffin. […]

MMP-9 = MMP-9 (Homo sapiens, UniProt P14780); experiment: MMP-9 cleavage assay of norbornene peptide monomers (HPLC); type: biochemical; conditions: 0.5 μM MMP-9: 500 μM NorMMP, 24 hours of incubation at 37° C.
Sequence of MMP-9 (P14780 94-707): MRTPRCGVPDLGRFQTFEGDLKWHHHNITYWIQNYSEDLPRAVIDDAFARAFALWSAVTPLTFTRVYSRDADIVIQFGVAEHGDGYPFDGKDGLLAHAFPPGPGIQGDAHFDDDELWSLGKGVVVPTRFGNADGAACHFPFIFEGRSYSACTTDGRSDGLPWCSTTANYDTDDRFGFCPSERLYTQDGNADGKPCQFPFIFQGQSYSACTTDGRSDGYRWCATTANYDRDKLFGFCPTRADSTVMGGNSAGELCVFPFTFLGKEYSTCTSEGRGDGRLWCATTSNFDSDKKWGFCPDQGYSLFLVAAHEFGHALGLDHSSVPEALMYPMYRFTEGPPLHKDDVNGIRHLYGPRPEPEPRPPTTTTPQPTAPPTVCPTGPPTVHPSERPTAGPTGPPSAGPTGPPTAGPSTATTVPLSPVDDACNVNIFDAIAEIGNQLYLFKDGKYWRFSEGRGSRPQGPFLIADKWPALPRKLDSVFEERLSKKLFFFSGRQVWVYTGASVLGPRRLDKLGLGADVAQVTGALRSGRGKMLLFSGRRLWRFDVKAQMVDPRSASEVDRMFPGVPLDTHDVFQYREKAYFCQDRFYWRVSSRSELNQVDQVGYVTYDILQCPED
Procedure: Stock solution of NorMMP peptide (510 μM) was prepared in DPBS buffer. To an Eppendorf tube, 1.5 μL MMP-9 stock (38.46 μM) and […] of NorMMP stock was added, giving a final concentration of 0.5 μM MMP-9: 500 μM NorMMP. The solution was incubated at 37° C. for 24 hours to promote peptide cleavage. To prepare the HPLC sample, 50 μL of the reaction mixture was added to 150 μL of DPBS buffer. 40 μL of resulting solution was injected into HPLC for analysis. For NorMMPL, NorMMPD and the cleavable sequence ([…]), a gradient of 20-60% Buffer B over 30 minutes was used. For the NorMMPR, a gradient of 20-40% Buffer B in 30 minutes was used.
Three test groups, including the norbornenes functionalized with random peptide (NorMMPR), D- and L-MMP peptide (NorMMPD and NorMMPL), and one control group with the cleaved peptide sequence […] were setup.

[4] = single dose, 260 μg of DEX, two weeks following injection

Row | Substance | order of in-vivo fluorescence intensity [1] | nanoparticle morphology upon thermolysin treatment (TEM) (thermolysin) | cleavage by MMP-9 (HPLC traces) (MMP-9) | further results
1 | NPD: micellar nanoparticles formed of DEX-containing D-MMP-containing PPA (PPAD) (NorAHA-G[dP][dL]G[dL][dA]GGERDG-NH2; not fully specified; also: grafted via NorAHA into ROMP polynorbornene block copolymer, micellar nanoparticle) | NPL>NPD>NPR | maintained their nanoparticle morphology | – | –
2 | GGSGSGSGWGERDGS-NH2 (C-terminus assumed) [random peptide] | – | – | – | water solubility [2]: good water solubility
3 | NPR: micellar nanoparticles formed of DEX-containing random-peptide PPA (PPAR) (GGSGSGSGWGERDGS) | NPL>NPD>NPR | maintained their nanoparticle morphology | – | –
4 | NPL: micellar nanoparticles formed of DEX-containing L-MMP-containing PPA (PPAL) (NorAHA-GPLGLAGGERDG-NH2; not fully specified; also: micellar nanoparticle of NorDEX20-b-NorMMP5 polynorbornene block copolymer with DEX ester) | NPL>NPD>NPR | cleavage induced aggregation | – | collagen membrane area, higher than the free dexamethasone group [3, 4]: about 20%; collagen membrane area, higher than the no treatment group [3, 4]: about 40%; remaining collagen membrane area compared to free-form dexamethasone-treated group [3, 4]: significantly larger; voids in the residual collagen membranes compared to free-form dexamethasone and no injection groups ([3]; staining and histology analysis): significantly less voids; in-vivo fluorescence intensity compared to NPD and NPR controls ([1]; 7- and 14-days post injection (day 14 and day 21)): significantly higher
5 | NorMMPD: norbornene monomer with D-MMP peptide (SEQ ID NO: 2), D-amino acids in the PLGLAG portion (NorAHA-G[dP][dL]G[dL][dA]GGERDG-NH2; not fully specified) | – | – | remained intact | –
6 | NorMMPL: norbornene monomer functionalized with L-MMP peptide (SEQ ID NO: 1), MMP-cleavable (NorAHA-GPLGLAGGERDG-NH2; SMILES CC(C)C[C@H](NC(=O)CNC(=O)[C@H](CC(C)C)NC(=O)[C@@H]1CCCN1C(=O)CNC(=O)CCCCCN1C(=O)[C@@H]2[C@H](C1=O)[C@H]1C=C[C@@H]2C1)C(=O)N[C@@H](C)C(=O)NCC(=O)NCC(=O)N[C@@H](CCC(=O)O)C(=O)N[C@@H](CCCNC(=N)N)C(=O)N[C@@H](CC(=O)O)C(=O)NCC(N)=O) | – | – | completely cleaved | –
7 | MMP peptide: peptide comprising PLGLAG sequence with all L-amino acids (SEQ ID NO: 1), MMP-cleavable (GPLGLAGGERDG-NH2) | – | – | – | net charge ([2]; pH=7): −1
8 | NorMMPR: norbornene monomer with R-MMP random peptide (SEQ ID NO: 17) (NorAHA-GGSGSGSGWGERDGS-NH2; not fully specified) | – | – | remained intact | –
